A short description of the series: yeast display, Sf9 membrane polyspecificity reagent, FACS + sequencing; frameworks hold sequencing errors. The procedure, abridged: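 Galactose-induced (36–48 hours) yeast carrying a synthetic nanobody display library were exposed to 10% biotinylated, detergent-solubilized Sf9 membrane reagent at 4 °C for 1 hour. FACS followed streptavidin microbead enrichment, using low and high (top ~1%) gates for expression (anti-HA) and reagent binding (streptavidin). Colony PCR, MiSeq 2 × 250 sequencing and CDR-length filtering followed. Labels for polyreactivity reflect the gate of origin.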
For “QVQLVESGGGLVQAGGSLRLSCAASGIIFASNGMGWSRQPPGKERELVAAISSGGSTNYADSVKGRFTISRDNAKNTVYLQMNSLKPEDTAVYYCAAVRWYREYDYWGQGTQVTVSS”, the “polyreactivity (PSR sort gate)” value is “low polyreactivity”.

For the sequence “QVQLVESGGGLVQAGGSLRLSCAASGIIFATYAMGWYRQAPGKERELVASISTGDSTNYADSVKGRFTISRDNAKNTVYLQMNSLKPEDTAVDYCNADSYPYYVYGSNDYWGQGTQVTVSS”, the “polyreactivity (PSR sort gate)” value is recorded as “low polyreactivity”.

In the case of “QVQLVESGGGLVQAGGSLRLSCAASGIIFATYAMGWYRQAPGKERELVASISTGDSTNYADSVKGRFTISRDNAKTTVYLQMNSLKPEDTAVYYCNADSYPYYVYGSNDYWGQGTQVTVSS”, the “polyreactivity (PSR sort gate)” value was “low polyreactivity”.

“QVQLVESGGGLVQAGGSLRLSCAASGIIFAYNAMGWYRQAPGKERELVATITDSGGSTSYADSVKGRFTISRDNAKNTVYLQMNSLKPEDTAVYYCAVLPVYWYWRNYVYLSGYDYWGQVTQVTVSS”: the “polyreactivity (PSR sort gate)” value was “low polyreactivity”.

For “QVQLVESGGGLVQAGGSLRLSCAASGIIFAYYALGWYRQAPGKERELVAGITQSGGDTYYADSVKGRFTISRDNAKNTVYLQLNSLKPEDTAVYYCAAGWWGYDYWGQGTQVTVSS”, the “polyreactivity (PSR sort gate)” value was “high polyreactivity”.

With “QVQLVESGGGLVQAGGSLRLSCAASGIIFAYYAMGWYRQAPGKERELVAAIDYSGASTYYADSVKGRFTISRDNAKNTVYLQMNSLKPEDTAVYYCAKYQYDYYTYDYWGQGTQVTVSS”, the “polyreactivity (PSR sort gate)” value is listed as “low polyreactivity”.

For the sequence “QVQLVESGGGLVQAGGSLRLSCAASGIIFAYYAMGWYRQAPGKERELVASITNTGSTYYADSVKGRFTISRDNAKNTVYLQMNSLKPEDTAVYYCNAVLSSNTKWRYPGDYWGQGTQVTVSS”, the “polyreactivity (PSR sort gate)” value is “low polyreactivity”.

“QVQLVESGGGLVQAGGSLRLSCAASGIIFDCNSMGWYRQAPGKERELVAANTSSTDSTYYADSVKGRFTISRDNAKNTVYLQLNSLKPEDTAVYYCAAAYPSKTFDYWGQGTQVTESS”: the “polyreactivity (PSR sort gate)” value was “low polyreactivity”.

Turning to “QVQLVESGGGLVQAGGSLRLSCAASGIIFDDNTMGWYRQAPGKERELVAAISSGGRTYYADSVKGRFTISRDNAKYTVYLQMNSLKPEDTAVYYFNVDIYTYIASNGELDYWGQGTQVTVSS”, the “polyreactivity (PSR sort gate)” value was “low polyreactivity”.

Take “QVQLVESGGGLVQAGGSLRLSCAASGIIFDEYAMGWYRQAPGKERELVAVIDWSGGSTYYADSVKGRFTISRDNAKKTVYLQMNSLKPEVTAVYYCAAEDDSSTPEFDYWGQGTQVTVSS”: the “polyreactivity (PSR sort gate)” value was “low polyreactivity”.

In the case of “QVQLVESGGGLVQAGGSLRLSCAASGIIFDGNAMGWYRQAPGKERELVAAISSRGSRTYYADSVKGRFTISRDHAKNTVYLQMNSLKPEDTAVYYCNAGYGFRSYGYDPWGQGTQVTVSS”, the “polyreactivity (PSR sort gate)” value is listed as “high polyreactivity”.

Turning to “QVQLVESGGGLVQAGGSLRLSCAASGIIFDGNAMGWYRQAPGKERELVAAISSRGSRTYYADSVKGRFTISRDNAKNTVYLQMNSLKPEDTAVYSCNAGYVFRSYGYDPWGQGTQVTVSS”, the “polyreactivity (PSR sort gate)” value is “high polyreactivity”.

For the sequence “QVQLVESGGGLVQAGGSLRLSCAASGIIFDGYAMGWYRQAPGKERELVAAISRRGGSTYYADSVKGRFTISRDNAKNTVYLQMNSLKPEDTAVYYCAAEYVYWRIGQYDYWGQGTQVTVSS”, the “polyreactivity (PSR sort gate)” value was “high polyreactivity”.

With “QVQLVESGGGLVQAGGSLRLSCAASGIIFDINAMGWYRQAPGKERELVAAITTSVDSTYYADSVKGRFTISRDTAKNTVYLQMNSLKPEDTAVYYCAVAFVQFTQYDYWGQGTQVTVSS”, the “polyreactivity (PSR sort gate)” value is reported as “low polyreactivity”.

For “QVQLVESGGGLVQAGGSLRLSCAASGIIFDKNAMGWYRQAPGKERELVAVITRGGSTYYADSVKGRFTISRDNAKNTVYLQMNSLKPEDTAVYYCAARYTPGFGYWGQGTQVTVSS”, the “polyreactivity (PSR sort gate)” value is “high polyreactivity”.

For the sequence “QVQLVESGGGLVQAGGSLRLSCAASGIIFDSYAMGWYRQAPGKERELVAAITSDSGRTYYADSVKGRFTISRDNAKNTVYLQMNSLKPEDTAVYYCAKRWDGPYDYWGHGTQVTVSS”, the “polyreactivity (PSR sort gate)” value is on record as “low polyreactivity”.

Turning to “QVQLVESGGGLVQAGGSLRLSCAASGIIFDTYAMGWYRPAPGKEREFVARISYSGGTTYYADSVKGRFTSSRDNAKNTVYLQMNSLKPEDTAVYYCATVSRRFYRWSSRYDYWGQGTQVTVSS”, the “polyreactivity (PSR sort gate)” value is “high polyreactivity”.

Turning to “QVQLVESGGGLVQAGGSLRLSCAASGIIFDTYAMGWYRQAPGKERELVAAISRSGDTTYYADSVKGRFTISRDNAKNTVYLQMNSLKPEDTAVYYCNRGNRWNFDSWGQGTQVTVSS”, the “polyreactivity (PSR sort gate)” value was “high polyreactivity”.

Turning to “QVQLVESGGGLVQAGGSLRLSCAASGIIFDYTAMGWYRQAPGKERELVAAITSTDNTNYADSVKGRFTISRDNAKNTVYLQMNSLKPEDTAVYYCNTDYWLSVVYAMDYWGQGTQVTVSS”, the “polyreactivity (PSR sort gate)” value is recorded as “low polyreactivity”.

As for “QVQLVESGGGLVQAGGSLRLSCAASGIIFDYYAMGWYRQAPGKERELVATITSGGSTNYADSVKGRFTISRDNAKNTVYLQMNSLKPEDTAVYYCAKEYFATWLIPKYDYWGQGTQVTVSS”, the “polyreactivity (PSR sort gate)” value was “low polyreactivity”.

For “QVQLVESGGGLVQAGGSLRLSCAASGIIFEGKARGWYRQAPGTERELVAAISTSTGRTYYADSVKGRFTISRDNAKNTVYLQINSLKPEDTAVYYCAAYIRTTRFDYWGQGTQVTVSS”, the “polyreactivity (PSR sort gate)” value is on record as “high polyreactivity”.

“QVQLVESGGGLVQAGGSLRLSCAASGIIFEGYAMGWYRQAPGKERELVAAISQSGGSTRYADSVKGRFTISRDNAKNTVYLQMNSLKPEDTAVYYCAKEVWNWGPYYYWGQGTQVTVSS”: the “polyreactivity (PSR sort gate)” value is listed as “low polyreactivity”.

Regarding “QVQLVESGGGLVQAGGSLRLSCAASGIIFELYAMGWYRQAPGKEREFVAAINFSDGSTDYADSVKGRFTISRDNAKNTVYLQMNSLKPEDTAVYYCNADTIAYGSIIHGYWGQGTQVTVSS”, the “polyreactivity (PSR sort gate)” value is “low polyreactivity”.

For the sequence “QVQLVESGGGLVQAGGSLRLSCAASGIIFESYAMGWYRQAPGKERELVAAISWDGGSTYYADSVKGRFTISRDNAKNTVYLQMNSLKPEDTAVYYCAAESYGIYDGYDYWGQGTQVTVSS”, the “polyreactivity (PSR sort gate)” value is recorded as “high polyreactivity”.

For the sequence “QVQLVESGGGLVQAGGSLRLSCAASGIIFEYYAMGWYRQAPGKERELVAAITRGGSTYYADSVKGRFTISRDNAKNTVYLQMNSLKPEDTAVYYCAADRYYYEYEYWGQGTQVTVSS”, the “polyreactivity (PSR sort gate)” value was “low polyreactivity”.

“QVQLVESGGGLVQAGGSLRLSCAASGIIFFKYGMGWYRQAPGKERELVAAITSGGSTYYADSVKGRFTISRDNAKNTVYLQMNSLKPEDTAVYYCNAQRYWRKVWEYESWGQGTQVTVSS”: the “polyreactivity (PSR sort gate)” value was “low polyreactivity”.

Consider “QVQLVESGGGLVQAGGSLRLSCAASGIIFFLYAMGWNRQAPGKERELVAAISSGGSTYYADSVKGRFTISRDNAKYTVYLQMNSLKPEDTAVYYFIARYWPFRYYYWGQGTQVTVSS”, for which the “polyreactivity (PSR sort gate)” value is given as “high polyreactivity”.

As for “QVQLVESGGGLVQAGGSLRLSCAASGIIFFSNTMGWYRQAPGKEREFVAAITWSTGNTYYADSVKGRFTISRDNAKNTVYLQMNSLKPEDTAVYYCYAEYLVITWYGGVEFDYWGQGTEVTVSS”, the “polyreactivity (PSR sort gate)” value is “low polyreactivity”.

Take “QVQLVESGGGLVQAGGSLRLSCAASGIIFGGYAMGWYRQAPGKERELVAAIDSSGSSTYYADSVKGRFTISRDNAKNTVYLQMNSLKPEDTAVYYCNAASSGHSGRLTSIINDYWGQGTQVTVSS”: the “polyreactivity (PSR sort gate)” value is “high polyreactivity”.

Consider “QVQLVESGGGLVQAGGSLRLSCAASGIIFGLNAMGWYRQAPGKERELVAAIRRRGGSTYYADSVKGRYTISRDNAKTTVYLQMNSLKPEDTAVYYCAAAGGRYSRAAYDYWGQGTQVTVSS”, for which the “polyreactivity (PSR sort gate)” value is “low polyreactivity”.

As to “QVQLVESGGGLVQAGGSLRLSCAASGIIFGLYAMGWYRQAPGKERELVAAITRSGGRTYYADSVKGRFTISRDNAKNTVYFQMNSLKPEDTAVYFCAADASGHSYDYWGQGTEVTVSS”, the “polyreactivity (PSR sort gate)” value is listed as “high polyreactivity”.

“QVQLVESGGGLVQAGGSLRLSCAASGIIFGRYAMGWYRQAPGKERELVAAINASGGSTYYADSVKGRFTISRDNAKNTVYLQMNSLKPEDTAVYYCATVHVWGFVYVGSGYWGQGTQVTVSS”: the “polyreactivity (PSR sort gate)” value is on record as “high polyreactivity”.

Regarding “QVQLVESGGGLVQAGGSLRLSCAASGIIFGRYAMGWYRQAPGKERELVAAINGSGGSTYYADSVKGRFTISRDNAKNTVYLQMNSLKPEDTAVYYCAANGFLRNGYWGQGTQVTVSS”, the “polyreactivity (PSR sort gate)” value is on record as “high polyreactivity”.

Consider “QVQLVESGGGLVQAGGSLRLSCAASGIIFGRYAMGWYRQAPGKERELVAAISSRGGSTYYADSVKGRFTISRDNAKNTVYLQMNSLKPEDTAVYYCNKDDERGKLYYWGQGTQVTVSS”, for which the “polyreactivity (PSR sort gate)” value was “high polyreactivity”.

Take “QVQLVESGGGLVQAGGSLRLSCAASGIIFGRYAMGWYRQAPGKERELVAAITWSGGGTYYADSVKGRFTISRDNAKNTVYLQMNSLKPEDTAVYYCAARTTPHWGYVSTNYWGQGTQVTVSS”: the “polyreactivity (PSR sort gate)” value was “low polyreactivity”.

In the case of “QVQLVESGGGLVQAGGSLRLSCAASGIIFGRYAMGWYRQAPGKERELVATSSRGGGRTYYADSVKGRFTISRDNAKYTVYLLMNSLIPEDTAVYYCASYFYRGGLDSWGQGTQVTVSS”, the “polyreactivity (PSR sort gate)” value is “high polyreactivity”.

On to “QVQLVESGGGLVQAGGSLRLSCAASGIIFGRYARGWYRQAPGKDRELVATISYRGGRTNYADSVKGRFTISRDNAKNTVYLQSNSLKPEDTAVYDCAAPHFSYSGGTHDYWGQGTQVTVSS”, for which the “polyreactivity (PSR sort gate)” value is listed as “high polyreactivity”.

“QVQLVESGGGLVQAGGSLRLSCAASGIIFGRYTMGWYRQAPGKERELVAAITSSGITYYADSVKGRFTISRDNAKNTVYLQMNSLKPEETAVYYCNADYSIPGYYWPYDYWGQGTQVTVSS”: the “polyreactivity (PSR sort gate)” value is given as “low polyreactivity”.

As to “QVQLVESGGGLVQAGGSLRLSCAASGIIFGSNTMGWYRQAPGTERELVAAITSSDGSTHYADSVKGRFTISRDNAKNTVYLQMNRLKPEDTAVYYCAARKVTYGHSYGYDYWGQGTQVTVSS”, the “polyreactivity (PSR sort gate)” value is “low polyreactivity”.

As to “QVQLVESGGGLVQAGGSLRLSCAASGIIFGSNVMGWYREAPGIERELVAAINYGGGSTYYADSVKGRFTISRDNAKKTVYLQMNSLKPEDTAVYYCAARGSRDYRYDYWGQGTQVTVSS”, the “polyreactivity (PSR sort gate)” value was “low polyreactivity”.

Regarding “QVQLVESGGGLVQAGGSLRLSCAASGIIFGTYTMGWYRQAPGKERELVAAITYSGGRTYYADSVKGRFTISRDNAKNTVYLQMNSLKPEDTAVYYCAAYRSSWGYSPYDYWGQGTQVTVSS”, the “polyreactivity (PSR sort gate)” value was “high polyreactivity”.

The record behind these values is the nanobody polyreactivity screen of Harvey et al. (2022).
